The results in this text go back to patent publication US20230125614A1.

The first assay has as its target ARC40-GFP bait (S. cerevisiae ARC40, member of the Arp2/3 complex, fused with a C-terminal GFP epitope tag) (Saccharomyces cerevisiae) (UniProt P38328). Put plainly: low-throughput in vivo mRNA display co-purification, individually cloned ORFs, anti-GFP bead IP of ARC40-GFP.
On to “in vivo mRNA display library protein ARP2 (MCP-ARP2 fusion with purification tag) (from UniProt P32381 1-391)”, for which the Display Score turned out to be 1.8.
The same measure, in the same setting: the value for “in vivo mRNA display protein MYO3 (MCP-MYO3 fusion, individually cloned for the low-throughput experiment) (from UniProt P36006 1-1272)” was 1.9.

Another assay shares this target. Put plainly: in vivo mRNA display co-purification, pooled yeast library, anti-GFP bead IP of ARC40-GFP, NGS read-out.
Consider “in vivo mRNA display library protein ARP2 (MCP-ARP2 fusion with purification tag) (from UniProt P32381 1-391)”, for which the Display Score stood at 0.55.
Consider “in vivo mRNA display library protein ARC18 (MCP-ARC18 fusion with purification tag) (from UniProt Q05933 1-178)”, for which the Display Score stood at 3.3.
Consider “in vivo mRNA display library protein ARC19 (MCP-ARC19 fusion with purification tag) (from UniProt P33204 1-171)”, for which the Display Score came out at 3.9.
Same read-out and setting: then “in vivo mRNA display library protein ARC35 (MCP-ARC35 fusion with purification tag) (from UniProt P53731 1-342)”, with 3.7.
